The values that follow come from publication PMC6566870.

Assay [1] addresses N-terminally His6-tagged cMyc-tagged human CCR1 (human) (UniProt P32246).
Assay [2] has the same target. The source holds these as a separate data set.
For assay [3] the target is unchanged. Nature of the assay: radioligand binding; competitive displacement of 50 pM 125I-CCL3 from membranes of Flp-In T-REx 293 cells expressing CCR1; 2 h at 37 °C; two sets of experiments (Table 1, Table 3).
Assay [4] shares this target. This is another data set of the same source.
The target is the same in assay [5]. In words: radioligand binding; competitive displacement of 50 pM 125I-CCL3 from membranes of Flp-In T-REx 293 cells expressing CCR1; 2 h at 37 °C; two sets of experiments (Table 1, Table 3). The source holds these as a separate data set.
Assay [6] shares this target. The source holds these as a separate data set.

Like-named read-outs stand apart in the source and are kept apart here.

Chain of N-terminally His6-tagged cMyc-tagged human CCR1 (human) (P32246 whole entry): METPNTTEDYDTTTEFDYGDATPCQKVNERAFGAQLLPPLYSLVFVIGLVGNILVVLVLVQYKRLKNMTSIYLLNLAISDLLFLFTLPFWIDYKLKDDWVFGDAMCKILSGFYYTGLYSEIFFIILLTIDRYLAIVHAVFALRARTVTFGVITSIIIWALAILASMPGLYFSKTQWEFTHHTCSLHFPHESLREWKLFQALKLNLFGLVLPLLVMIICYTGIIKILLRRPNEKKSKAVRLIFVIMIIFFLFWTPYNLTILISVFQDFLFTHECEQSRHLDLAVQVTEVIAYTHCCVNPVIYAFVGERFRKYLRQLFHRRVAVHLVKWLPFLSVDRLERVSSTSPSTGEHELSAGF

For the substance CCL15(Δ28) (ligand), in assay [1], the ERK1/2 phosphorylation, EC50 was 2.1 nM; the ERK1/2 phosphorylation, Emax was determined as 28.3%; the ERK1/2 phosphorylation, pEC50 is 8.7 -log M; the Gαi1 activation (BRET), EC50 was 2.3 nM. Moreover, in assay [1], the Gαi1 activation (BRET), Emax is 86.2%; the Gαi1 activation (BRET), pEC50 was 8.6 -log M; the Gαi2 activation (BRET), EC50 amounted to 1.3 nM; the Gαi2 activation (BRET), Emax was determined as 140%. Besides, in assay [1], the Gαi2 activation (BRET), pEC50 was 8.9 -log M; the inhibition of forskolin-induced cAMP production, EC50 is 0.4 nM; the inhibition of forskolin-induced cAMP production, Emax was determined as 35.7%; the inhibition of forskolin-induced cAMP production, pEC50 is 9.4 -log M. In assay [2], this substance had a transduction coefficient Log(τ/KA), GPA αi1 of 8.4; a transduction coefficient Log(τ/KA), GPA αi2 of 8.6; a transduction coefficient Log(τ/KA), cAMP of 8.9; a transduction coefficient Log(τ/KA), pERK of 8.6. In assay [3], the IC50 stood at 0.074 nM and the pIC50 was 10.1 -log M.
In the case of CCL15(Δ26) (ligand), in assay [1], the Gαi2 activation (BRET), EC50 was 1.2 nM; the Gαi2 activation (BRET), Emax stood at 114%; the Gαi2 activation (BRET), pEC50 is 8.9 -log M; the inhibition of forskolin-induced cAMP production, EC50 (Table 3) was determined as 2.7 nM. Besides, in assay [2], the transduction coefficient Log(τ/KA), GPA αi1 (second set of experiments) amounted to 8.7; the transduction coefficient Log(τ/KA), GPA αi2 stood at 8.3; the transduction coefficient Log(τ/KA), cAMP (second set of experiments) stood at 8.4; the transduction coefficient Log(τ/KA), pERK (second set of experiments) was determined as 8.7. Moreover, in assay [4], the ERK1/2 phosphorylation, EC50 amounted to 2.3 nM; the ERK1/2 phosphorylation, Emax turned out to be 25.4%; the ERK1/2 phosphorylation, pEC50 was 8.6 -log M; the G protein activation (Gαi1, BRET), EC50 amounted to 1 nM. Moreover, in assay [4], the G protein activation (Gαi1, BRET), Emax came to 111%; the G protein activation (Gαi1, BRET), pEC50 is 9 -log M; the inhibition of forskolin-induced cAMP production, EC50 came out at 2.8 nM; the inhibition of forskolin-induced cAMP production, Emax was 28.7%. The inhibition of forskolin-induced cAMP production, pEC50 in assay [4] was 8.6 -log M. Also, in assay [5], the IC50 was found to be 0.093 nM and the pIC50 is 10.1 -log M. In assay [6], this substance registered a transduction coefficient Log(τ/KA), GPA αi1 of 8.6; a transduction coefficient Log(τ/KA), cAMP of 8.1; a transduction coefficient Log(τ/KA), pERK of 8.4. Moreover, in assay [3], the half-inhibitory concentration (IC50) came to 0.028 nM and the pIC50 is 10.6 -log M.
As for CCL15(N-CCL7) (ligand), in assay [1], the ERK1/2 phosphorylation, EC50 was 1.3 nM; the ERK1/2 phosphorylation, Emax turned out to be 28.2%; the ERK1/2 phosphorylation, pEC50 was 8.9 -log M; the Gαi1 activation (BRET), EC50 was 0.7 nM. In addition, in assay [1], the Gαi1 activation (BRET), Emax worked out at 91.2%; the Gαi1 activation (BRET), pEC50 was 9.2 -log M; the Gαi2 activation (BRET), EC50 was 1.5 nM; the Gαi2 activation (BRET), Emax was 124%. Besides, in assay [1], the Gαi2 activation (BRET), pEC50 is 8.8 -log M; the inhibition of forskolin-induced cAMP production, EC50 came to 0.2 nM; the inhibition of forskolin-induced cAMP production, Emax was found to be 35.5%; the inhibition of forskolin-induced cAMP production, pEC50 is 9.7 -log M. In assay [2], the transduction coefficient Log(τ/KA), GPA αi1 is 9; the transduction coefficient Log(τ/KA), GPA αi2 was 8.5; the transduction coefficient Log(τ/KA), cAMP is 9.1; the transduction coefficient Log(τ/KA), pERK turned out to be 8.8. In assay [3], the IC50 was 0.54 nM and the negative-log IC50 (pIC50) was 9.3 -log M.

What is called IC50 is the concentration that gives 50% inhibition. Read a high IC50 as lower potency. What is called pIC50 is −log10 of the IC50, conventionally taken in molar units. Low values mean a high IC50, high ones a low IC50.
